Fewer inactive variants are shown than the library holds.
Key:
[1] = tested on: biotinyl-Phe-oxazolone; test: self-aminoacylation, catalytic enhancement (BFO) (fold over background); higher = more active; k-Seq, kA / k0A0; sequences stand for … in GGGAAUGGAUCCACAUCUACGAAUUC…UUCACUGCAGACUUGACGAAGCUG
Procedure, shortened: (§1)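 Mutagenized RNA pools with a 21-nt variable region (0.43 μM) reacted with each biotinyl-aminoacyl-oxazolone at 2–1250 μM. Reactions ran in 50 μL HEPES/NaCl/KCl/MgCl2/CaCl2 buffer with 5% acetonitrile, pH 6.9–7.0, for 90 minutes at room temperature. Streptavidin-captured RNA was quantified by triplicate qPCR and Illumina sequencing, and per-sequence fraction reacted was fit to a pseudo-first-order model with 1000 bootstraps. Catalytic enhancement is median kA divided by the uncatalyzed rate, the low-activity peak of a bimodal Gaussian fit.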

[2] = tested on: biotinyl-Ile-oxazolone; test: self-aminoacylation, catalytic enhancement (BIO) (fold over background); higher = more active; k-Seq, kA / k0A0; sequences stand for … in GGGAAUGGAUCCACAUCUACGAAUUC…UUCACUGCAGACUUGACGAAGCUG
Procedure, shortened: as §1

[3] = tested on: biotinyl-Met-oxazolone; test: self-aminoacylation, catalytic enhancement (BMO) (fold over background); higher = more active; k-Seq, kA / k0A0; sequences stand for … in GGGAAUGGAUCCACAUCUACGAAUUC…UUCACUGCAGACUUGACGAAGCUG
Procedure, shortened: as §1

[4] = tested on: biotinyl-Val-oxazolone; test: self-aminoacylation, catalytic enhancement (BVO) (fold over background); higher = more active; k-Seq, kA / k0A0; sequences stand for … in GGGAAUGGAUCCACAUCUACGAAUUC…UUCACUGCAGACUUGACGAAGCUG
Procedure, shortened: as §1

[5] = tested on: biotinyl-Leu-oxazolone; test: self-aminoacylation, catalytic enhancement (BLO) (fold over background); higher = more active; k-Seq, kA / k0A0; sequences stand for … in GGGAAUGGAUCCACAUCUACGAAUUC…UUCACUGCAGACUUGACGAAGCUG
Procedure, shortened: as §1

[6] = tested on: biotinyl-Trp-oxazolone; test: self-aminoacylation, catalytic enhancement (BWO) (fold over background); higher = more active; k-Seq, kA / k0A0; sequences stand for … in GGGAAUGGAUCCACAUCUACGAAUUC…UUCACUGCAGACUUGACGAAGCUG
Procedure, shortened: as §1

Row | Sequence | self-aminoacylation [1] | self-aminoacylation [2] | self-aminoacylation [3] | self-aminoacylation [4] | self-aminoacylation [5] | self-aminoacylation [6]
1 | AAGCUUGCUAAUAGUAGCAAG [Fam3.1 aminoacylation ribozyme variant] | 2.27 | 1.39 | 1.08 | 1.3 | 1.55 | 2.48
2 | AAGCUUGCUAAUAGUCGCACG [Fam3.1 aminoacylation ribozyme variant] | 4.41 | 1.81 | 1.29 | 1.76 | 1.6 | 1.33
3 | AAGCUUGCUAAUAGUCGCGAG [Fam3.1 aminoacylation ribozyme variant] | 26.9 | 2.66 | 3.36 | 1.9 | 2.66 | 3.85
4 | AAGCUUGCUAAUAGUCGGAAG [Fam3.1 aminoacylation ribozyme variant] | 3.45 | 1.48 | 1.34 | 1.3 | 1.21 | 1.65
5 | AAGCUUGCUAAUGGUCGCAAG [Fam3.1 aminoacylation ribozyme variant] | 2.3 | 1.77 | 2.83 | 1.76 | 1.83 | 3.95
6 | AAGCUUGCUACUAGUCGCAAG [Fam3.1 aminoacylation ribozyme variant] | – | 2.45 | 2.37 | – | 2.03 | 2.23
7 | AAGCUUGCUGAUAGUCGCAAG [Fam3.1 aminoacylation ribozyme variant] | 4.23 | 2.19 | 2.4 | 2.45 | – | 3.03
8 | AAGUUGGCUAACAGUCGCAAG [Fam3.1 aminoacylation ribozyme variant] | 2.15 | 2.05 | – | – | – | 2.26
9 | ACGCUUGCUAAUAGUCGCAAG [Fam3.1 aminoacylation ribozyme variant] | 5.67 | 2.28 | 2.29 | – | – | 2.88
10 | AUUAACCUGGUCCUCGAGUGA [Fam2.1 aminoacylation ribozyme variant] | 19.7 | 2.3 | 3.92 | – | 4.42 | 4.11
11 | AUUACACUCGUCAUCGAGUGA [Fam2.1 aminoacylation ribozyme variant] | 18 | 2.13 | 3.51 | – | 3.87 | 4.43
12 | AUUACCCUGGUCAUCGCUUGA [Fam2.1 aminoacylation ribozyme variant] | 10.7 | 2.09 | 2.25 | – | – | 3.08
13 | AUUCACAUAGGUCAUCUGGUG [Fam2.2 aminoacylation ribozyme variant] | 15.7 | 2.1 | 2.89 | – | 3.86 | 3.03
14 | AUUCACCUAAGUCAUUGGGUG [Fam2.2 aminoacylation ribozyme variant] | 20.5 | 2.31 | 3.48 | – | 3.65 | 2.6
15 | AUUCACCUAGGUCAUCGAGUU [Fam2.2 aminoacylation ribozyme variant] | 7.47 | 2.69 | 3.3 | 2.25 | 4.79 | –
16 | AUUCACCUAGGUCUUCGGGGG [Fam2.2 aminoacylation ribozyme variant] | 12 | 3.04 | 2.43 | 3.04 | 3.62 | –
17 | AUUCACCUGGGUCAUCGGGCG [Fam2.2 aminoacylation ribozyme variant] | – | 3.58 | 4.48 | 4.75 | 5.26 | 2.91
18 | AUUCACUUAGGUCAUCGGGUA [Fam2.2 aminoacylation ribozyme variant] | – | 2.29 | 2.38 | 2.15 | – | –
19 | AUUUACCUAGUUCAUCGGGUG [Fam2.2 aminoacylation ribozyme variant] | 15.2 | 2.13 | 2.61 | – | 3.25 | 2.25
20 | CAACACUUCAAGCAAUCGGGC [Fam1B.1 aminoacylation ribozyme variant] | 4.52 | 2.15 | 2.2 | 2.23 | 2.2 | –
21 | CAGUUUGCUAAUAGUCGCAAU [Fam3.1 aminoacylation ribozyme variant] | 2 | 2.06 | – | – | – | –
22 | CAGUUUGCUAAUAGUCGCGAG [Fam3.1 aminoacylation ribozyme variant] | 12.2 | 2.33 | – | 2.01 | 3.12 | 3.86
23 | CCACACAUCAAGCAAUCGGGC [Fam1B.1 aminoacylation ribozyme variant] | – | 2.01 | – | – | – | 2.1
24 | CCACACCUCAAGCAAUCGCUC [Fam1B.1 aminoacylation ribozyme variant] | 9.63 | 2.12 | 2.85 | – | 2.72 | 3.13
25 | CCACACUUCAAGCCAUCCGUC [Fam1B.1 aminoacylation ribozyme variant] | – | 2.04 | – | – | – | –
26 | CCACACUUCAUGCAAUCGGCC [Fam1B.1 aminoacylation ribozyme variant] | 14.2 | 2.44 | 2.9 | 2.8 | 2.72 | –
27 | CCACCCUUCAAGCAAUCGGGC [Fam1B.1 aminoacylation ribozyme variant] | 15.4 | 2.06 | – | 3.02 | – | 2.65
28 | CUACUUCAAACACUCGGGCUG [Fam1A.1 aminoacylation ribozyme variant] | – | 2.18 | – | 2.2 | 2.06 | –
29 | GCACACUUCAAGCAACCGGUC [Fam1B.1 aminoacylation ribozyme variant] | 2.92 | 2.31 | – | 2.43 | 2.46 | 4.35
